Assay results from patent US7612188.

Biological target: tissue factor (Innovin, Dade) (UniProt P13726)
UniProt P13726, sequence (P13726 33-295): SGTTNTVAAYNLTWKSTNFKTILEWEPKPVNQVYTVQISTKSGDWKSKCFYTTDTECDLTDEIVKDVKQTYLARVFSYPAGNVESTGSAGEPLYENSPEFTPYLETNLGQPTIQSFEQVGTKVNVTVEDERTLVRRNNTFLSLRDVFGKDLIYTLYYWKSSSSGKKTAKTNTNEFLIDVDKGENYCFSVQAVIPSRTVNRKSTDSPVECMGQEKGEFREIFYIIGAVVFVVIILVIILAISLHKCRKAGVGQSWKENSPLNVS

Row | Substance | competition clotting assay with FFR-VIIa (0 to 3.5 nM) and Innovin, compared with VIIa-Q11E33 | competition clotting assay with active site modified VIIa (0-3.2 nM), compared with the Q11E33 mutant
1 | Human factor VIIa-T9Q11E33 | Human factor VIIa-T9Q11E33 exhibited a severe loss of competitive binding affinity | –
2 | factor VII with leucine for phenylalanine at position 5 and the Q11E33 mutations | – | had much lower activity than the Q11E33 mutant
